Test results taken from PMC2074667.

Tests used:
[1] = molecular target: high-affinity cell-surface IFN-alpha receptor of human lung carcinoma cells (human (endogenous in PC9 and other lung carcinoma cell lines)); assay: radioligand binding; several lung carcinoma cell lines (lines not named) in suspension, room temperature, 2 h, 0.1-4 nM [125I]IFN-a; non-specific binding measured with 100-fold excess of unlabelled IFN-a; Scatchard analysis
[2] = molecular target: high-affinity cell-surface IFN-alpha receptor of human lung carcinoma cells (human (endogenous in PC9 and other lung carcinoma cell lines)); assay: radioligand binding; PC9 cells in suspension (200 ul of 5 x 10^6 cells/ml) incubated at room temperature for 2 h with 0.1-4 nM [125I]IFN-a; non-specific binding measured with 100-fold excess of unlabelled IFN-a; Scatchard analysis

Work on “Pure recombinant human IFN-alpha, labelled with 125I (from UniProt P01563 24-188) (ligand)” yielded a Kd [1] of 0.02 to 0.1 nM and a Kd [2] of 0.042 nM.
